# Data taken from patent publication US20210017277A1 (US Dept. of Health and Human Services, published 2021).
# Target: T1, Biotinylated Human Siglec-3/CD33 Protein, Avi Tag (Acro Biosystems) (human, UniProt P20138 18-259, biotinylated (Avi Tag))
# T1 construct: Bought reagent; also called biotinalated Siglec-3; not shown: Avi Tag
# Assay: flow cytometry: CAR-transduced T cells stained with biotinylated human Siglec-3/CD33 protein, then Streptavidin-PE
# Procedure: Surface expression of CD33 CAR-transduced T cells was determined by flow cytometry using either protein-L (Themo Fisher) or a Biotinylated Human Siglec-3/CD33 Protein (Acro Biosystems, Newark, Del., USA) followed by incubation with Streptavidin-PE (BioLegend, San Diego, Calif., USA). CD123 CAR expression were detected with protein-L. Expression of CD33, CD123 and other cell surface markers were detected using the following antibodies from eBioscience (Thermo Fisher): CD33, CD45, CD3, CD8a, CD4, CD10.
# For CD33 CAR detection with Biotinylated Human Siglec-3/CD33 Protein: CAR detection with: add 2 ul of Biotinylated Human Siglec-3/CD33 Protein, [Avi Tag (Avitag™) Acro Biosystems, Newark, Del., USA], incubate for 20 min, wash once and incubate with 0.5 μl of Streptavidin-PE, incubate for additional 10 min, wash once, subject for FACS analysis.
# T1 sequence (P20138 18-259 limits assumed): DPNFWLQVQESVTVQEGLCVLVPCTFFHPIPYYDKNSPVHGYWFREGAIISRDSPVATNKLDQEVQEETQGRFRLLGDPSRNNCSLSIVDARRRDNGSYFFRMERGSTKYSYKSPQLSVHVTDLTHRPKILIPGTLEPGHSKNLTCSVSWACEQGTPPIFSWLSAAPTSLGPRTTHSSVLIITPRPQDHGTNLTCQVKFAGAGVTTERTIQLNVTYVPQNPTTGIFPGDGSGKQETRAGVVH
binder,measurement,value
"CD33Hu195-CD28Z CAR (other, CAR on the surface of transduced human T cells; also called CD33.2-28z; CD33.2-CD28z) QVQLVQSGAEVKKPGSSVKVSCKASGYTFTDYNMHWVRQAPGQGLEWIGYIYPYNGGTGYNQKFKSKATITADESTNTAYMELSSLRSEDTAVYYCARGRPAMDYWGQGTLVTVSSGGGGSGGGGSGGGGSDIQMTQSPSSLSASVGDRVTITCRASESVDNYGISFMNWFQQKPGKAPKLLIYAASNQGSGVPSRFSGSGSGTDFTLTISSLQPDDFATYYCQQSKEVPWTFGQGTKVEIKSGAAAIEVMYPPPYLDNEKSNGTIIHVKGKHLCPSPLFPGPSKPFWVLVVVGGVLACYSLLVTVAFIIFWVRSKRSRLLHSDYMNMTPRRPGPTRKHYQPYAPPRDFAAYRSRVKFSRSADAPAYQQGQNQLYNELNLGRREEYDVLDKRRGRDPEMGGKPRRKNPQEGLYNELQKDKMAEAYSEIGMKGERRRGKGHDGLYQGLSTATKDTYDALHMQALPPR",binding result,binds
